Assay results: article PMC8096101

Biological target: SMO657-nanoluc (UniProt P56726)
Assay: BRET
Conditions: HEK293 cells; SMO657-nanoluc donor, YFP-tagged PKA-C acceptor; BRET ratio (YFP/nanoluc), background-subtracted; parent: est. 2.4; read off a plot

Sequence of UniProt P56726 (P56726 65-657): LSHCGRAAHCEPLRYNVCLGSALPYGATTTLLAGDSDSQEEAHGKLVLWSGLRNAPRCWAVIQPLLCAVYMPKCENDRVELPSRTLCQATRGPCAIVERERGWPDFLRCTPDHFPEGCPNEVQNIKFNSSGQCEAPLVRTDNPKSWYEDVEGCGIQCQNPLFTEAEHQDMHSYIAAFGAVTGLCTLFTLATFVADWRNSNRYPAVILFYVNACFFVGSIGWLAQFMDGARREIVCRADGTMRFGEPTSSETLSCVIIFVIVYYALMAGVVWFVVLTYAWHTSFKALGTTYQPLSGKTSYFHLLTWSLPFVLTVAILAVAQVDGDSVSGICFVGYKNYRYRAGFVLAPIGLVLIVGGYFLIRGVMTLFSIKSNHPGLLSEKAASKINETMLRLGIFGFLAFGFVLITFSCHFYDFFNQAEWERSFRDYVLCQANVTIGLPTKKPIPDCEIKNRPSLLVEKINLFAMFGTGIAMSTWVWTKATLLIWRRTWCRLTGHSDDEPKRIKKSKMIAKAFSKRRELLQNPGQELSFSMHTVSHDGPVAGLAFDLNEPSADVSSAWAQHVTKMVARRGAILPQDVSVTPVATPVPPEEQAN

PKA-C-YFP (PKA catalytic subunit alpha, carboxyl-terminally YFP-tagged) (from UniProt P05132) H87Q; W196R
response: 2.5 BRET
